Assay results as given in PMC2063550.

How the values were obtained:
[1] = biological target: GST-PERK, wild-type PERK kinase domain fused to GST (active, autophosphorylated) (mouse) (UniProt Q9Z2B5); assay: pull-down
[2] = biological target: GST-PERK, wild-type PERK kinase domain fused to GST (active, autophosphorylated) (mouse) (UniProt Q9Z2B5)

Chain of UniProt Q9Z2B5 (Q9Z2B5 537-1114): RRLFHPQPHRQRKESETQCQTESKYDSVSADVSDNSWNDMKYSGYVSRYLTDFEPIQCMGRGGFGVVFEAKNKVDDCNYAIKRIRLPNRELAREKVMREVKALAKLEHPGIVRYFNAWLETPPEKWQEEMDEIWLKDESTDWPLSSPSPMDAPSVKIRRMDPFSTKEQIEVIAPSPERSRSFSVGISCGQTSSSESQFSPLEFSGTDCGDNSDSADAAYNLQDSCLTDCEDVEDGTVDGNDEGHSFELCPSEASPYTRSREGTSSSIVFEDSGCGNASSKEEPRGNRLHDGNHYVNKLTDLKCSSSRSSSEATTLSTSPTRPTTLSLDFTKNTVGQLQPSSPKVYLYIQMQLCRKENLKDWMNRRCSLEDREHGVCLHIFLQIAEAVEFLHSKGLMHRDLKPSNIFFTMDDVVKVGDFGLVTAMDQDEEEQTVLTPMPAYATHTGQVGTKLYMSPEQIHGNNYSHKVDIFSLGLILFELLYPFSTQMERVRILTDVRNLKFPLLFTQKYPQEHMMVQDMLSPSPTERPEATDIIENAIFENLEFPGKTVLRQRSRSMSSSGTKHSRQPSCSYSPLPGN

| KCl concentration at the peak of elution [1] | stoichiometry N (eIF2α-NTD per PERK) [2] | Substance |
| --- | --- | --- |
| 125 mM KCl | – | phosphorylated eIF2α-NTD (P–eIF2α-NTD, phosphorylated by PERK on serine 51) (domain or fragment) |
| 225 mM KCl | > 1 | eIF2α-NTD (NH2-terminal domain of eIF2α, residues 1-185, three solubilizing mutations, nonphosphorylated) (domain or fragment) |
